Measured values taken from patent US20200000932A1.

Target: bovine submaxillary mucin (BSM) (bovine)
Experiment: BSM ELISA on BSM-coated wells, periodate-sensitive signal (periodate-treated wells subtracted)

B1: hSIA101 (antibody, human IgG1, kappa, V domains shown)
VH: EVQLVQSGAEVKKPGASVKVSCKASGYTFTDHAIHWVRQAPGQGLEWMGYFSPGNDDIKYNEKFRGRVTMTADKSSSTAYMELRSLRSDDTAVYFCKRSLSTPYWGQGTLVTVSS
VL: DIVMTQSPDSLAVSLGERATINCKSSQSLLNRGNHKNYLTWYQQKPGQPPKLLIYWASTRESGVPDRFSGSGSGTDFTLTISSLQAEDVAVYYCQNDYTYPYTFGQGTKVEIKR
An EC50 of 4.2 nM was found for B1 in this work.

B2: hSIA103 (antibody, human IgG1, kappa, V domains shown)
VH: QVQLVQSGAEVKKPGASVKVSCKASGYTFTDHAIHWVRQAPGQGLEWMGYISPGNGDIKYNEKFKDRVTMTADKSSSTAYMQLRSLRSDDTAVYFCKRSLLALDYWGQGTLVTVSS
VL: DIQMTQSPSSLSASVGDRVTITCKASQDVGTNIAWYQQKPGKAPKVLIYSASTRHTGVPSRFSGSGSGTDFTLTISSLQPEDFATYFCQQYSSFPLTFGQGTKVEIKR
An EC50 of 1.8 nM was found for B2 in this work.
